T1: Candida antartica lipase fraction B (CALB) (Moesziomyces antarcticus, UniProt P41365)
T1 construct: purchased Boehringer Mannheim CHIRAZYME L-2
T1 sequence (P41365 26-342): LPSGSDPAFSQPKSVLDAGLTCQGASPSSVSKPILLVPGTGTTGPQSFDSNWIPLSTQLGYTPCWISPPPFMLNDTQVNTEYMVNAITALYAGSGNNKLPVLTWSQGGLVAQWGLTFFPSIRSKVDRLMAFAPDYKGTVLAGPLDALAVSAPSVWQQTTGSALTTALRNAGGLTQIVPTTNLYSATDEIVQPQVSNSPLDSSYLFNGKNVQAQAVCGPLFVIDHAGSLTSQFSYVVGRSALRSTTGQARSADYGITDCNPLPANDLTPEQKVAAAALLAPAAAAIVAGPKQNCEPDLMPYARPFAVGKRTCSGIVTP

B1: protease, trypsin bovine pancreas: commercial trypsin, source bovine pancreas (protein, UniProt P00760 24-246, looked up)
Serine protease 1: IVGGYTCGANTVPYQVSLNSGYHFCGGSLINSQWVVSAAHCYKSGIQVRLGEDNINVVEGNEQFISASKSIVHPSYNSNTLNNDIMLIKLKSAASLNSRVASISLPTSCASAGTQCLISGWGNTKSSGTSYPDVLKCLKAPILSDSSCKSAYPGQITSNMFCAGYLEGGKDSCQGDSGGPVVCSGKLQGIVSWGSGCAQKNKPGVYTKVCNYVSWIKQTIASN
B2: lipase (Chirazyme L7): commercial enzyme preparation, source porcine pancreas (protein, UniProt P00591 1-450, looked up)
Pancreatic triacylglycerol …: SEVCFPRLGCFSDDAPWAGIVQRPLKILPWSPKDVDTRFLLYTNQNQNNYQELVADPSTITNSNFRMDRKTRFIIHGFIDKGEEDWLSNICKNLFKVESVNCICVDWKGGSRTGYTQASQNIRIVGAEVAYFVEVLKSSLGYSPSNVHVIGHSLGSHAAGEAGRRTNGTIERITGLDPAEPCFQGTPELVRLDPSDAKFVDVIHTDAAPIIPNLGFGMSQTVGHLDFFPNGGKQMPGCQKNILSQIVDIDGIWEGTRDFVACNHLRSYKYYADSILNPDGFAGFPCDSYNVFTANKCFPCPSEGCPQMGHYADRFPGKTNGVSQVFYLNTGDASNFARWRYKVSVTLSGKKVTGHILVSLFGNEGNSRQYEIYKGTLQPDNTHSDEFDSDVEVGDLQKVKFIWYNNNVINPTLPRVGASKITVERNDGKVYDFCSQETVREEVLLTLNPC

Tests used:
Format in all cases: biochemical
[1] = target: T1, Candida antartica lipase fraction B (CALB); assay: Relative rates of hydrolysis of N-(alkoxycarbonyl)-trans-4-hydroxy-L-proline methyl esters by CALB; settings: for time to complete hydrolysis of the methyl ester / initial reaction rate: 50 mM substrate, 3.0 mg/mL CALB, 25° C.; for time to complete hydrolysis of the methyl ester: 0.100M potassium phosphate pH 7.0; for initial reaction rate: pH 7.0
Method: A 2.0 mL aqueous solution containing 50 mM N-(methoxycarbonyl)-trans-4-hydroxy-L-proline methyl ester, or 50 mM N-(ethoxycarbonyl)-trans-4-hydroxy-L-proline methyl ester, or 50 mM N-(tert-butoxycarbonyl)-trans-4-hydroxy-L-proline methyl ester in 0.100M potassium phosphate (pH 7.0) and 3.0 mg/mL of Candida antartica lipase fraction B was mixed at 25° C. The reactions were analyzed by removal of 0.200 mL aliquots at pre-determined times and mixing the sample with an equivalent volume of 0.100M propionic acid (HPLC internal standard) in water, and filtering the resulting solution through a 10K molecular weight cut-off filter to remove the enzyme. The filtrate was then analyzed by high pressure liquid chromatography on a HPX-87H column (Bio-Rad, 30 cm×7.8 mm) to determine the percent conversion of the N-(alkoxycarbonyl)-trans-4-hydroxy-L-proline methyl ester. Complete hydrolysis of the methyl ester of the N-methoxy-, N-ethoxy-, and N-tert-butoxycarbonyl derivatives occurred in 5 h, 2 h, and 6 h, respectively, and the initial reaction rates were 5.7, 18.7, and 3.3 micromoles/h/mg enzyme catalyst, respectively.

[2] = Enzyme screens for resolution of racemic N-(acetyl)-4-keto-D,L-proline methyl ester (Example 7, comparative); settings: 0.100M racemate, 5 h, 5.0 to 30 mg/mL enzyme, 25° C.; for conv. (percent conversion of the racemate): 0.20M sodium succinate pH 6.0; for % ee (enantiomeric excess of the D-isomer): pH 6.0
Method: (§1) An aqueous solution (1.0 mL) containing 0.100M racemic N-(acetyl)-4-keto-D,L-proline methyl ester in 0.20M sodium succinate (pH 6.0) was mixed with 5.0 to 30 mg/mL of commercial enzyme preparations (listed in the table below) at 25° C. […] The dichloromethane extract was then analyzed by chiral gas chromatography on a Chiraldex G-TA column (Advanced Separation Technologies, Inc., 50 m×0.32 mm ID) to determine the percent conversion of the racemate, and the enantiomeric excess of the N-(acetyl)-4-keto-D-proline methyl ester.

[3] = Enzyme screens for resolution of diastereomeric mixture CHDP(MEMC)/THLP(MEMC) (Example 9); settings: 0.050M each isomer, 5 h or 24 h, 5.0 to 50 mg/mL enzyme, 25° C.; for conv. (percent conversion of the diastereomeric mixture): 0.100M potassium phosphate pH 7.0; for % de (diastereomeric excess of the D-isomer, CHDP(MEMC)): pH 7.0
Method: (§2) An aqueous solution (1.0 mL) containing 0.050M N-(methoxycarbonyl)-trans-4-hydroxy-L-proline methyl ester and 0.050M N-(methoxycarbonyl)-cis-4-hydroxy-D-proline methyl ester in 0.100M potassium phosphate (pH 7.0) was mixed with 5.0 to 50 mg/mL of commercial enzyme preparations (listed in the table below) at 25° C. The reactions were analyzed after 5 h or 24 h by removal of a 0.200 mL sample and mixing with an equivalent volume of 0.100M propionic acid (HPLC internal standard) in water. The resulting solution was filtered through a 10K molecular weight cut-off filter to remove the enzyme and the filtrate analyzed by high pressure liquid chromatography on a HPX-87H column (Bio-Rad, 30 cm×7.8 mm) to determine the percent conversion of each isomer of the diastereomeric mixture, and the diastereomeric excess of the N-(methoxycarbonyl)-cis-4-hydroxy-D-proline methyl ester.

[4] = Enzyme screens for resolution of racemic N-(methoxycarbonyl)-4-keto-D,L-proline methyl ester (Example 1); settings: 0.100M racemate, 5.0 to 50 mg/mL enzyme, 25° C., optimum; for conv. (percent conversion of the racemate): 0.20M sodium succinate pH 6.0, 5 h or 0.20M sodium acetate pH 5.0, 24 h; for % ee (enantiomeric excess of the D-isomer; L-isomer with porcine liver esterase): pH 6.0, 5 h or pH 5.0, 24 h
Method: An aqueous solution (1.0 mL) containing 0.100M racemic N-(methoxycarbonyl)-4-keto-D,L-proline methyl ester in either 0.20M sodium succinate (pH 6.0) or 0.20M sodium acetate (pH 5.0) was mixed with 5.0 to 50 mg/mL of commercial enzyme preparations (listed in the table below) at 25° C. […] The dichloromethane extract was then analyzed by chiral gas chromatography on a Chiraldex G-TA column (Advanced Separation Technologies, Inc., 50 m×0.32 mm ID) to determine the percent conversion of the racemate, and the enantiomeric excess of the N-(methoxycarbonyl)-4-keto-D-proline methyl ester.

[5] = Enzyme screens for resolution of racemic N-(methoxycarbonyl)-4,4-dimethoxy-D,L-proline methyl ester (Example 8, comparative); settings: 0.100M racemate, 6 h or 17 h, 5.0 to 30 mg/mL enzyme, 25° C.; for conv. (percent conversion of the racemate): 0.25M potassium phosphate pH 7.0; for % ee (enantiomeric excess of the D-isomer): pH 7.0
Method: as §1, with “N-(methoxycarbonyl)-4,4-dimethoxy-D,L-proline” for “N-(acetyl)-4-keto-D,L-proline”, “0.25M potassium phosphate” for “0.20M sodium succinate”, “7.0)” for “6.0)”, “ethyl acetate” for “dichloromethane”, “N-(methoxycarbonyl)-4,4-dimethoxy-D-prolinemethyl” for “the N-(acetyl)-4-keto-D-proline methyl”

[6] = Enzyme screens for resolution of diastereomeric mixture CHLP(MEMC)/THLP(MEMC) (Example 13); settings: 0.050M each isomer, 5 h, 5.0 to 50 mg/mL enzyme, 25° C.; for conv. (percent conversion of the diastereomeric mixture): 0.100M potassium phosphate pH 7.0; for % de (diastereomeric excess of the cis-L-isomer): pH 7.0
Method: as §2, with “solution” for “solution (1.0 mL)”, “N-(methoxycarbonyl)-cis-4-hydroxy-L-proline” for “N-(methoxycarbonyl)-cis-4-hydroxy-D-proline”, “5” for “5 h or 24”, “of” for “of each isomer of”

Molecule | time to complete hydrolysis of the methyl ester [1] [h] | initial reaction rate [1] | initial rate of methyl ester hydrolysis, times faster than THLP(MEBOC) ([1]; CALB) [times] | initial rate of methyl ester hydrolysis, times faster than THLP(MEEC) as printed ([1]; CALB) | conv. (percent conversion of the racemate) [2] [%] | % ee (enantiomeric excess of the D-isomer) [2] [%] | conv. (percent conversion of the diastereomeric mixture) [3] [%] | % de (diastereomeric excess of the D-isomer, CHDP(MEMC)) [3] [%] | conv. (percent conversion of the racemate) [4] [%] | % ee (enantiomeric excess of the D-isomer; L-isomer with porcine liver esterase) [4] [%] | conv. (percent conversion of the racemate) [5] [%] | % ee (enantiomeric excess of the D-isomer) [5] [%] | conv. (percent conversion of the diastereomeric mixture) [6] [%] | % de (diastereomeric excess of the cis-L-isomer) [6] [%]
CCOC(=O)N1C[C@H](O)C[C@H]1C(=O)OC [THLP(MEEC), N-(ethoxycarbonyl)-trans-4-hydroxy-L-proline methyl ester] | 2 | 18.7 micromoles/h/mg enzyme catalyst | ~1.7 | approximately 3.3 times | – | – | – | – | – | – | – | – | – | –
COC(=O)[C@@H]1C[C@@H](O)CN1C(=O)OC(C)(C)C [THLP(MEBOC), N-(tert-butoxycarbonyl)-trans-4-hydroxy-L-proline methyl ester] | 6 | 3.3 micromoles/h/mg enzyme catalyst | – | – | – | – | – | – | – | – | – | – | – | –
B1 | – | – | – | – | 0 | 0 | 0 | 0 | 0 | 0 | 0 | 0 | 0 | 0
B2 | – | – | – | – | 0 | 0 | 0 | 0 | 0 | 0 | 10 | 0 | 0 | 0
